The values below come from paper PMC3185043.

Holding throughout (assay): pull-down SILAC MS
Series [1] relates to RBP-J (U937 nuclear extract) (Homo sapiens). The settings on record: reverse ratio 0.11974; 5-methylcytosine at CpG (M.SssI); EMSA: 20 mM HEPES pH 7.9, 1 mM EDTA, 3 mM MgCl2, 10 mM beta-mercaptoethanol, 10% glycerol, 0.1% Triton X-100, 2 ug BSA, 10 ng poly(dI-dC), 30 min on ice …; scale: H/L ratio methylated/unmethylated. On the technique in general: Mobility shift assays separate free from complexed probe on a gel.

Series [2] concerns MeCP2 (U937 nuclear extract) (Homo sapiens). The settings on record: reverse ratio 0.18572; 5-methylcytosine at CpG (M.SssI); EMSA: 20 mM HEPES pH 7.9, 1 mM EDTA, 3 mM MgCl2, 10 mM beta-mercaptoethanol, 10% glycerol, 0.1% Triton X-100, 2 ug BSA, 10 ng poly(dI-dC), 30 min on ice …; scale: H/L ratio methylated/unmethylated.
Series [3] relates to MBD2 (U937 nuclear extract) (Homo sapiens). Conditions: 5-methylcytosine at CpG (M.SssI); EMSA: 20 mM HEPES pH 7.9, 1 mM EDTA, 3 mM MgCl2, 10 mM beta-mercaptoethanol, 10% glycerol, 0.1% Triton X-100, 2 ug BSA, 10 ng poly(dI-dC), 30 min on ice …; scale: H/L ratio methylated/unmethylated.

Turning to “GSTP1 CpG-island multimer, methylated (pull-down)”, the figures for the binding signal in series [1], in series [2] and in series [3] were 6.21, 4.54 and 12.9, respectively.
